Columns and labels:
[1] = biological target: T1, Muc1 mucin bearing the CA6 sialoglycotope (DS6 antigen), as expressed by CA6-positive human tumour cell lines (human, UniProt P15941 24-1255, sialylated O-linked carbohydrate carrying the CA6 glycotope; sites not stated); experiment: flow cytometry on HeLa cells (FIG. 28), apparent Kd, probably pM
T1 construct: whole, on cells; It stood on whole cells in flow cytometry and in cell lysates in dot blots, immunoprecipitations and western blots; also called CA6 antigen; Muc1 mucin receptor

[2] = biological target: T1, Muc1 mucin bearing the CA6 …; experiment: flow cytometry competition; competitor 2 nM biotin-muDS6, streptavidin-DTAF; called IC50 in the legend of FIG. 19
Method: In the first set of experiments direct binding to a CA6-expressing cell line, KB, was measured.

[3] = biological target: T1, Muc1 mucin bearing the CA6 …; experiment: cell-based or functional assay

Binder	Kd [1] [nM]	EC50 [2] [nM]	indirect cell viability assay on Caov-3 cells with anti-mouse IgG (H+L) DM1 conjugate, IC50 [3] [nM]
murine anti-CA6 monoclonal antibody DS6 (antibody, mouse IgG1, V domains shown, Whole murine monoclonal antibody from the hybridoma (ATCC PTA-4449); They were cloned with murine IgG1 and kappa primers; also called muDS6; the DS6 antibody) VH: QAYLQQSGAELVRSGASVKMSCKASGYTFTSYNMHWVKQTPGQGLEWIGYIYPGNGATNYNQKFKGKATLTADPSSSTAYMQISSLTSEDSAVYFCARGDSVPFAYWGQGTLVTVSA VL: QIVLTQSPAIMSASPGEKVTITCSAHSSVSFMHWFQQKPGTSPKLWIYSTSSLASGVPARFGGSGSGTSYSLTISRMEAEDAATYYCQQRSSFPLTFGAGTKLELKR	620000	1.9	425000
chimeric DS6 antibody (antibody, V domains shown, Expressed in CHO cells; also called chDS6) VH: QAYLQQSGAELVRSGASVKMSCKASGYTFTSYNMHWVKQTPGQGLEWIGYIYPGNGATNYNQKFKGKATLTADPSSSTAYMQISSLTSEDSAVYFCARGDSVPFAYWGQGTLVTVSA VL: QIVLTQSPAIMSASPGEKVTITCSAHSSVSFMHWFQQKPGTSPKLWIYSTSSLASGVPARFGGSGSGTSYSLTISRMEAEDAATYYCQQRSSFPLTFGAGTKLELKR		1.7	
humanized DS6 antibody version 1.21 (antibody, V domains shown, also called huDS6v1.21; huDS6 v1.21) VH: QAQLVQSGAEVVKPGASVKMSCKASGYTFTSYNMHWVKQTPGQGLEWIGYIYPGNGATNYNQKFQGKATLTADPSSSTAYMQISSLTSEDSAVYFCARGDSVPFAYWGQGTLVTVSA VL: EIVLTQSPATMSASPGERVTITCSAHSSVSFMHWFQQKPGTSPKLWIYSTSSLASGVPARFGGSGSGTSYSLTISSMEAEDAATYYCQQRSSFPLTFGAGTKLELKR		1.9	
humanized DS6 antibody version 1.01 (antibody, V domains shown, also called huDS6v1.01; huDS6 v1.01) VH: QAQLVQSGAEVVKPGASVKMSCKASGYTFTSYNMHWVKQTPGQGLEWIGYIYPGNGATNYNQKFQGKATLTADTSSSTAYMQISSLTSEDSAVYFCARGDSVPFAYWGQGTLVTVSA VL: EIVLTQSPATMSASPGERVTITCSAHSSVSFMHWFQQKPGTSPKLWIYSTSSLASGVPARFGGSGSGTSYSLTISSMEAEDAATYYCQQRSSFPLTFGAGTKLELKR		3	

From patent US20110064733A1 (published 2011)
